Data: the Human Domainome abundance scans (Beltran et al. 2025)

B1: COUP transcription factor 1, residues 83 to 159; numbered along this chain, P10589 (parent)
chain: HIECVVCGDKSSGKHYGQFTCEGCKSFFKRSVRRNLTYTCRANRNCPIDQHHRNQCQYCRLKKCLKVGMRREAVQRG

Variants of: B1
Test: abundance fitness (aPCA) (normalised: wild type 0, dead -1); higher = more abundant; growth selection in yeast, the domain comes from the species named
Details: Homo sapiens

Abundance fitness, by site and new letter:
C40: K -0.384; V -0.861; R -0.864; L -0.786; Y -0.704; W -0.712; H -1.21; I -0.496; D -0.51; Q -0.848; A -0.885; P -0.941; G -0.731; E -0.683; T -0.503
R33: Q 0.272; W 0.068; I 0.086; C -0.698; F -0.51; M -0.045; K -0.022; L 0.109; A 0.142; E 0.099; G -0.029; P -0.771; T 0.096; D 0.013
Y38: N -0.772; P 0.094; M -0.059; E -0.226; W -0.658; V -0.257; T -0.669; S -0.791; K -0.831; I -0.24; C -0.745; F -0.089; Q -0.464; A -0.378; R -0.662; G -0.458; D -0.509
L36: H 0.095; Q -0.113; R -0.082; D -0.232; V 0.007; K 0.126; E 0.162; S -0.147; M -0.085; P 0.03; A -0.064; G -0.17; C -0.206
R41: D 0.085; I 0.135; Y 0.088; M 0.08; P 0.265; S 0.176; C 0.038; F -0.239; L 0.228; G 0.188; A 0.207; N 0.21; K 0.301; E 0.107; W 0.145; H 0.051; T -0.068
R34: V -0.137; Q 0.018; C -0.759; I 0.091; P -0.308; Y -0.263; A 0.268; S -0.193; L -0.161; G 0.131; M -0.002; T -0.295; W -0.25
R44: K -0.071; Q -0.048; S -0.024; P -0.405; Y -0.432; H -0.003; I 0.038; M 0.057; V -0.292; F -0.207; A 0.077; E 0.082; D 0.084; C -0.153; W -0.07; T 0.054; N 0.11
V32: G -0.378; A -0.151; Y -0.062; K -0.181; D -0.265; L -0.26; N -0.196; H 0.19; P -0.393; W -0.784; F -0.068; C -0.798; E -0.072; I -0.089; M 0.072; Q -0.299; S -0.336; R -0.66
N35: E 0.161; V -0.104; M -0.118; G -0.003; W -0.38; P -0.402; R -0.196; H -0.256; S -0.508; C 0.538; K 0.085; T -0.346; L -0.513
T39: S 0.113; G -0.099; I -0.019; A 0.17; W 0.057; C -0.244; E 0.191; D 0.12; F 0.23; N 0.103; P -0.359; K -0.083; V 0.013; R -0.108; M -0.126; Q 0.04
S31: I 0.014; A 0.036; L -0.571; Q 0.053; Y -0.169; G -0.598; T -0.027; C 0.075; K -0.688; V -0.155; R -0.955; H -0.176; W -0.185; E -0.336
